Columns and labels:
[1] = test system: Capan-1, human pancreas adenocarcinoma xenografts; experiment: Radiotherapy / combination therapy study in mice bearing human pancreatic tumour xenografts; assay type: in vivo; conditions: for survival versus untreated control animals: control (36 days)
Procedure: ED-B-fibronectin domain expression in mouse pancreatic tumour models as well in human pancreatic cancer tissue, pancreatitis and normal pancreas was investigated by immunohistochemical analysis. SPECT (=single photon emission computed tomography) imaging was performed in an orthotopic pancreas cancer mouse model (DAN-G human pancreas carcinoma, DMSZ No. ACC249) with the ^99mTc labelled ED-B-fibronectin domain targeting scFv antibody fragment AP39, described in WO 03/055917. In addition MRI imaging was performed. In radiotherapy studies, mice bearing human pancreatic tumour xenografts (Capan-1, human pancreas adenocarcinoma, ATTC-No. HTB-79) were treated with a single dose of either 37 MBq or 74 MBq of ^131I-labelled ED-B-fibronectin domain targeting L19-SIP (=fusion protein). For combination therapy Capan-1 tumour bearing mice received two cycles of gemcitabine (1 g/m^2/week for three weeks with a one-week break), followed by a single dose of 37 MBq ^131I-L19-SIP 24 h after the first injection of gemcitabine. In a first experiment Capan-1 tumour bearing mice received either a single dose of 37 MBq of ^131I labelled ED-B-fibronectin domain targeting L19-SIP, or two cycles of gemcitabine (1 g/m^2/week for three weeks with a one-week break) as stand alone therapies. For combination therapy mice received two cycles of gemcitabine together with a single dose of 37 MBq ^131I-L19-SIP 24 h after the first injection of gemcitabine. In a second experiment Capan-1 tumour bearing mice were treated with a single dose of either 37 MBq or 74 MBq of ^131I labelled ED-B-fibronectin domain targeting L19-SIP (=fusion protein). For combination therapy Capan-1 tumour bearing mice received two cycles of gemcitabine (1 g/m^2/week for three weeks with a one-week break), together with a single dose of 37 MBq 1311-L19-SIP 24 h after the first injection of gemcitabine.

[2] = molecular target: T1, ED-B domain of fibronectin (Homo sapiens, UniProt P02751); conditions: cited from earlier work
T1 construct: The ED-B, a small domain of 91 amino acids
T1 sequence (P02751 1271-1359 limits assumed): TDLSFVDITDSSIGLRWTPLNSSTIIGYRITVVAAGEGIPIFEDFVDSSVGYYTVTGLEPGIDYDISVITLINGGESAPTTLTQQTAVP

Nc1ccn([C@@H]2O[C@H](CO)[C@@H](O)C2(F)F)c(=O)n1 [gemcitabine, 2′-deoxy-2′,2′-difluorocytidine]
survival versus untreated control animals ([1]; gemcitabine alone, two cycles (1 g/m^2/week for three weeks, one-week break), Capan-1 tumour bearing mice): did not differ from untreated control animals

scFv(L19): human single chain Fv antibody fragment specific for the ED-B domain of fibronectin
binding affinity for ED-B [2]: picomolar

B1: ^131I-L19-SIP (conjugate, chains of the INN, looked up)
VH: EVQLLESGGGLVQPGGSLRLSCAASGFTFSSFSMSWVRQAPGKGLEWVSSISGSSGTTYYADSVKGRFTISRDNSKNTLYLQMNSLRAEDTAVYYCAKPFPYFDYWGQGTLVTVSS
VL: EIVLTQSPGTLSLSPGERATLSCRASQSVSSSFLAWYQQKPGQAPRLLIYYASSRATGIPDRFSGSGSGTDFTLTISRLEPEDFAVYYCQQTGRIPPTFGQGTKVEIK
modifications: small immunoprotein iodine-131 label
survival versus untreated control animals ([1]; 37 MBq ^131I-L19-SIP alone, Capan-1 tumour bearing mice): did not differ from untreated control animals
tumour growth inhibition compared to untreated control tumours ([1]; 37 MBq ^131I-L19-SIP, single dose): did not result in tumour growth inhibition
median survival ([1]; single dose of 74 MBq ^131I-L19-SIP alone, Capan-1 tumour bearing mice, untreated control 32 days): 44 days

Reference: patent US20090110680A1, “Combination of an anti ED-B fibronectin domain antibody and gemcitabine” (priority 2006, published 2009)
